# Assay results as given in publication doi:10.1101/2025.07.17.665365, “A protein-dependent riboswitch activates ribosomal frameshifting in cardioviruses”.
# How the values were obtained:
# [1] = biological target: T1, TMEV 2A (Theiler's murine encephalitis virus …, UniProt P08545 923-1055); assay: EMSA; EMSA: 10 mM Tris-HCl pH 7.4, ~140 mM NaCl, 2 mM Mg acetate, 1 mM DTT, 5% glycerol, 50 nM RNA, 37 C; MST: 20 mM Tris-HCl pH 7.4, 400 mM NaCl, 1 mM MgCl2, 1 mM DTT, 0.05% Tween-20, 0.1 mg/ml tRNA, 22 C; smFRET: 10 mM Tris-HCl pH 7.4, 150 mM NaCl, 1 mM MgCl2, 1 mM DTT, 0.1 mg/ml BSA, ambient; conditions: protein: recombinant, tags: His6-MBP, TEV-cleaved/removed, label: 5' Cy5 or AzDye647
# T1 sequence: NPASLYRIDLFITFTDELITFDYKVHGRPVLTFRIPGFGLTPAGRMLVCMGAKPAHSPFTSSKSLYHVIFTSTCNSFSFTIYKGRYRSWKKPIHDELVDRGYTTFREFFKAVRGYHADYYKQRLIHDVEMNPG
# [2] = biological target: T1, TMEV 2A; assay: SEC-SAXS; SASDWS5; EMSA: 10 mM Tris-HCl pH 7.4, ~140 mM NaCl, 2 mM Mg acetate, 1 mM DTT, 5% glycerol, 50 nM RNA, 37 C; MST: 20 mM Tris-HCl pH 7.4, 400 mM NaCl, 1 mM MgCl2, 1 mM DTT, 0.05% Tween-20, 0.1 mg/ml tRNA, 22 C; smFRET: 10 mM Tris-HCl pH 7.4, 150 mM NaCl, 1 mM MgCl2, 1 mM DTT, 0.1 mg/ml BSA, ambient; conditions: protein: recombinant; tags: His6-MBP, TEV-cleaved/removed; 7 bp stem-loop with unpaired 5' tail alone; pseudoknot in complex
# [3] = biological target: T1, TMEV 2A; assay: EMSA; range given jointly for +1 and -1 bp; EMSA: 10 mM Tris-HCl pH 7.4, ~140 mM NaCl, 2 mM Mg acetate, 1 mM DTT, 5% glycerol, 50 nM RNA, 37 C; MST: 20 mM Tris-HCl pH 7.4, 400 mM NaCl, 1 mM MgCl2, 1 mM DTT, 0.05% Tween-20, 0.1 mg/ml tRNA, 22 C; smFRET: 10 mM Tris-HCl pH 7.4, 150 mM NaCl, 1 mM MgCl2, 1 mM DTT, 0.1 mg/ml BSA, ambient; conditions: protein: recombinant, tags: His6-MBP, TEV-cleaved/removed, label: 5' Cy5 or AzDye647
# [4] = biological target: T1, TMEV 2A; assay: X-ray crystallography; 1.9 A; pseudoknot; EMSA: 10 mM Tris-HCl pH 7.4, ~140 mM NaCl, 2 mM Mg acetate, 1 mM DTT, 5% glycerol, 50 nM RNA, 37 C; MST: 20 mM Tris-HCl pH 7.4, 400 mM NaCl, 1 mM MgCl2, 1 mM DTT, 0.05% Tween-20, 0.1 mg/ml tRNA, 22 C; smFRET: 10 mM Tris-HCl pH 7.4, 150 mM NaCl, 1 mM MgCl2, 1 mM DTT, 0.1 mg/ml BSA, ambient; conditions: protein: recombinant; tags: His6-MBP, TEV-cleaved/removed; stem-loop alone
# [5] = biological target: T1, TMEV 2A; assay: smFRET; 0.5 uM 2A; E 0.58 to 0.83; EMSA: 10 mM Tris-HCl pH 7.4, ~140 mM NaCl, 2 mM Mg acetate, 1 mM DTT, 5% glycerol, 50 nM RNA, 37 C; MST: 20 mM Tris-HCl pH 7.4, 400 mM NaCl, 1 mM MgCl2, 1 mM DTT, 0.05% Tween-20, 0.1 mg/ml tRNA, 22 C; smFRET: 10 mM Tris-HCl pH 7.4, 150 mM NaCl, 1 mM MgCl2, 1 mM DTT, 0.1 mg/ml BSA, ambient; conditions: protein: recombinant; tags: His6-MBP, TEV-cleaved/removed; label: 5' Cy5; U31 Cy3; stem-loop / pseudoknot
# [6] = biological target: T1, TMEV 2A; assay: smFRET; 0.5 uM 2A; E 0.85 to 0.63; EMSA: 10 mM Tris-HCl pH 7.4, ~140 mM NaCl, 2 mM Mg acetate, 1 mM DTT, 5% glycerol, 50 nM RNA, 37 C; MST: 20 mM Tris-HCl pH 7.4, 400 mM NaCl, 1 mM MgCl2, 1 mM DTT, 0.05% Tween-20, 0.1 mg/ml tRNA, 22 C; smFRET: 10 mM Tris-HCl pH 7.4, 150 mM NaCl, 1 mM MgCl2, 1 mM DTT, 0.1 mg/ml BSA, ambient; conditions: protein: recombinant; tags: His6-MBP, TEV-cleaved/removed; label: 5' Cy5; 3' Cy3; stem-loop / pseudoknot
binder,measurement,setting,value
CAACCUCCGGUGCUAACUAAAUGGGUAGCACCCC (structured_RNA) [Stem 1 swap],binding result,[1]; stem-loop / pseudoknot,no binding
CAAUUUUCGGUGCUAACUAAAUAAAUAGCACCCC (structured_RNA) [UA stem 1],binding result,[1]; stem-loop / pseudoknot,no binding
"CCACAAGGUGCGGUGCUAACUAAAUCCCUAGCACCCC (structured_RNA) [TMEV stimulatory element, SAXS RNA]",binding result,[2],binds
CAAGGGCGGUGCUAACUAAAUCCCUAGCACCCC (structured_RNA) [dU19 stem 1],binding result,[1]; stem-loop / pseudoknot,no binding
CAAGGUGCGGUGCUACUAAAUCCCAGCACCCC (structured_RNA) [-1 bp stem 2],Kd,[3]; 6 bp S2,~442 nM
CAAGGUGCGGUGCACUAAAUCCCGCACCCC (structured_RNA) [-2 bp stem 2],binding result,[1]; 5 bp S2,no binding
CAAGGUGCCCACGAUACUAAAUCCCAUCGUGGCC (structured_RNA) [Stem 2 swap],Kd,[1]; stem-loop / pseudoknot,~313 nM
CAAGGUGGGGUGCUUACUAAAUCCCAAGCACCCC (structured_RNA) [+1 bp stem 2],Kd,[3]; 8 bp S2,~442 nM
CAAGGUGCGGUGCUAACUAAAUCGCUAGCACCCC (structured_RNA) [C37G],binding result,[1]; stem-loop,no binding
CAAGGUGCGGUGCUAACUAAAUCCCUAGCACCCC (structured_RNA) [TMEV minimal stimulatory element (oligo 1)],binding result,[4],binds
"CAAGGUGCGGUGCUAACUAAAUCCCUAGCACCCC (structured_RNA, U31 Cy3 (internal)) [TMEV internal reporter RNA]",binding result,[5],binds
CAAGGUGCGGUGCUAACUAAAUGCCUAGCACCCC (structured_RNA) [C36G],binding result,[1]; stem-loop,no binding
CAAGGUGCGGUGCUAACUAAAUCCCUAGCACCCC (structured_RNA) [TMEV end reporter RNA],binding result,[6],binds
CAAAAUACGGUGCUAACUAAAUUUUUAGCACCCC (structured_RNA) [AU stem 1],binding result,[1]; stem-loop / pseudoknot,no binding
